T1: CARD11, Q9BXL7
T1 sequence (Q9BXL7 662-765, limits assumed, looked up): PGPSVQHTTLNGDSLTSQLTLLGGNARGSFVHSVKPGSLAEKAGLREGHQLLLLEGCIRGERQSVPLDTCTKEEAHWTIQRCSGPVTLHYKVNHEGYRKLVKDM

T2: DLG3_2, Q92796
T2 sequence (Q92796 221-321, limits assumed, looked up): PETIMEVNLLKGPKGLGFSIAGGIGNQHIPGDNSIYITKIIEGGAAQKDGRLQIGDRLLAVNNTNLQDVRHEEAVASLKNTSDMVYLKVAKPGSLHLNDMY

T3: DLG3_3, Q92796
T3 sequence (Q92796 374-475, limits assumed, looked up): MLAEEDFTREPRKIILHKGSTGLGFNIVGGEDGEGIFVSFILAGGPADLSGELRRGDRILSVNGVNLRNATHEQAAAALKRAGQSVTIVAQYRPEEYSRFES

T4: GRIP1_2, Q9Y3R0
T4 sequence (Q9Y3R0 145-248, limits assumed, looked up): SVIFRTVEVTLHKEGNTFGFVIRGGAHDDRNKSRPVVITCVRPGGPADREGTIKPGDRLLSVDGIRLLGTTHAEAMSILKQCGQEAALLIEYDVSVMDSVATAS

T5: LNX2_3, Q8N448
T5 sequence (Q8N448 463-564, limits assumed, looked up): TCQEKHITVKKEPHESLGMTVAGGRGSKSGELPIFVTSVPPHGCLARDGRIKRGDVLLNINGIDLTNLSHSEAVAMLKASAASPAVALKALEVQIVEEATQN

T6: MPP2, Q14168
T6 sequence (Q14168 180-250, limits assumed, looked up): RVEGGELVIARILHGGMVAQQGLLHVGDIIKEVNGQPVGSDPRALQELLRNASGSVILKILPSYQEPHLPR

T7: MPP6, Q9NZW5
T7 sequence (Q9NZW5 125-219, limits assumed, looked up): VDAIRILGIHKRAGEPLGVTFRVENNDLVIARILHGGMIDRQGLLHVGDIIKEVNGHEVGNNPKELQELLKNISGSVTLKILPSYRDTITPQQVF

T8: MPP7, Q5T2T1
T8 sequence (Q5T2T1 134-230, limits assumed, looked up): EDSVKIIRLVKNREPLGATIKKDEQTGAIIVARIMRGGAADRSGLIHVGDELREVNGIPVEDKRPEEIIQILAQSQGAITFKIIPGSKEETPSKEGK

T9: RHPN1, Q8TCX5
T9 sequence (Q8TCX5 508-602, limits assumed, looked up): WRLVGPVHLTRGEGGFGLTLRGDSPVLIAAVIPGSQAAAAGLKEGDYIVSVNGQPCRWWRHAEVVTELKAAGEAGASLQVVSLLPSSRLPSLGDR

T10: SIPA1L2, Q9P2F8
T10 sequence (Q9P2F8 945-1036, limits assumed, looked up): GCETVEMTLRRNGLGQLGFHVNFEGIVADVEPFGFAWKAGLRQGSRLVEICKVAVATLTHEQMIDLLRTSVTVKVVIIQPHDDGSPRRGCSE

T11: SNTG2, Q9NY99
T11 sequence (Q9NY99 68-166, limits assumed, looked up): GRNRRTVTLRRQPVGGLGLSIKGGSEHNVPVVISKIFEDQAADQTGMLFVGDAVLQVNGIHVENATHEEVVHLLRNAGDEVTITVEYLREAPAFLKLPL


Tests used:
Experiment in all cases: holdup assay
Parameters in all cases: key: below the threshold = too weak to quantify, mostly under pKd 3.1 to 4
Details in all cases: plain residues with an end cap or a label only (N-terminal biotin on a linker: ado-ado)
ARHGEF12, Q9NZN5-2 = molecular target: ARHGEF12, Q9NZN5-2
CARD11, Q9BXL7 = molecular target: T1, CARD11, Q9BXL7
DLG3_2, Q92796 = molecular target: T2, DLG3_2, Q92796
DLG3_3, Q92796 = molecular target: T3, DLG3_3, Q92796
FRMPD2_2, Q68DX3 = molecular target: FRMPD2_2, Q68DX3
GIPC2, Q8TF65 = molecular target: GIPC2, Q8TF65
GRIP1_2, Q9Y3R0 = molecular target: T4, GRIP1_2, Q9Y3R0
GRIP2_4, Q9C0E4 = molecular target: GRIP2_4, Q9C0E4
GRIP2_5, Q9C0E4 = molecular target: GRIP2_5, Q9C0E4
GRIP2_7, Q9C0E4 = molecular target: GRIP2_7, Q9C0E4
IL16_4, Q14005 = molecular target: IL16_4, Q14005
Inadl_4, Q8NI35 = molecular target: Inadl_4, Q8NI35
LNX2_3, Q8N448 = molecular target: T5, LNX2_3, Q8N448
MPP2, Q14168 = molecular target: T6, MPP2, Q14168
MPP6, Q9NZW5 = molecular target: T7, MPP6, Q9NZW5
MPP7, Q5T2T1 = molecular target: T8, MPP7, Q5T2T1
NHERF4_1, Q86UT5-2 = molecular target: NHERF4_1, Q86UT5-2
NOS1, P29475 = molecular target: NOS1, P29475
PDLIM1, O00151 = molecular target: PDLIM1, O00151
PTPN3, P26045 = molecular target: PTPN3, P26045
RHPN1, Q8TCX5 = molecular target: T9, RHPN1, Q8TCX5
SCRIB_1, Q14160 = molecular target: SCRIB_1, Q14160
SCRIB_3, Q14160 = molecular target: SCRIB_3, Q14160
SIPA1L2, Q9P2F8 = molecular target: T10, SIPA1L2, Q9P2F8
SNTG2, Q9NY99 = molecular target: T11, SNTG2, Q9NY99
TJP2_1, Q9UDY2 = molecular target: TJP2_1, Q9UDY2
TJP2_1, Q9UDY2, sequence (Q9UDY2 24-128): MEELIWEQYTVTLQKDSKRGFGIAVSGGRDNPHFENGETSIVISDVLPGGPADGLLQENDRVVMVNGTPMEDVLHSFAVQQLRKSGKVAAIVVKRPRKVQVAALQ

FRMPD2_2, Q68DX3, sequence (Q68DX3 944-1038): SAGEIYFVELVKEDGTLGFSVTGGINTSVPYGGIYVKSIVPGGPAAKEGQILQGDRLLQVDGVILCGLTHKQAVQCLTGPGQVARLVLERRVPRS
PDLIM1, O00151, sequence (O00151 1-87): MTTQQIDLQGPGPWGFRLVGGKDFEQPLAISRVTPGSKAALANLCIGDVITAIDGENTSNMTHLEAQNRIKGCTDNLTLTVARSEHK
NOS1, P29475, sequence (P29475 9-101): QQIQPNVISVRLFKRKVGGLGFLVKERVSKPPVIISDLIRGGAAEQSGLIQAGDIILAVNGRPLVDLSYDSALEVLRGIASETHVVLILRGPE
SCRIB_1, Q14160, sequence (Q14160 718-814): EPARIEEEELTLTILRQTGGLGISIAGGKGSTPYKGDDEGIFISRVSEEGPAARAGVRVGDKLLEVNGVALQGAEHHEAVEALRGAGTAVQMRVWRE
SCRIB_3, Q14160, sequence (Q14160 999-1103): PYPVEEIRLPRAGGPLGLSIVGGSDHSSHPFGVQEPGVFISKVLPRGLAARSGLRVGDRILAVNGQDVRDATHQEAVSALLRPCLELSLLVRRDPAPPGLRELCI
IL16_4, Q14005, sequence (Q14005 1229-1329): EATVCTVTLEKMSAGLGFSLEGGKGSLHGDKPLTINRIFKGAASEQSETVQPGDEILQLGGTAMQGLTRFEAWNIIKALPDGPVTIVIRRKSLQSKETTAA
GIPC2, Q8TF65, sequence (Q8TF65 112-203): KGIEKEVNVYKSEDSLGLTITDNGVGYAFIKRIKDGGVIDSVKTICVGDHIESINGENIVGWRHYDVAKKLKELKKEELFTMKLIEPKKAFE
GRIP2_5, Q9C0E4, sequence (Q9C0E4 544-642): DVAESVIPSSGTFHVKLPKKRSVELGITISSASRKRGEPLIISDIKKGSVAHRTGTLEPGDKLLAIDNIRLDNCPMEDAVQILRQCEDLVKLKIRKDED
PTPN3, P26045, sequence (P26045 505-587): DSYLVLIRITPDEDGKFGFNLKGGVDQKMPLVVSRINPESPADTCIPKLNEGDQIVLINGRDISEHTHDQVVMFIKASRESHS
GRIP2_7, Q9C0E4, sequence (Q9C0E4 934-1023): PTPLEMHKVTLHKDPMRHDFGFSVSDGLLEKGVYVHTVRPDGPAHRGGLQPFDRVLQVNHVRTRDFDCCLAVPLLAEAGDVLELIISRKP
Inadl_4, Q8NI35, sequence (Q8NI35 547-651): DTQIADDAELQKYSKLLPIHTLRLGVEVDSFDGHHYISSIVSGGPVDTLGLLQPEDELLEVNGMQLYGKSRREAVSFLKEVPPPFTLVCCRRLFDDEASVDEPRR
ARHGEF12, Q9NZN5-2, sequence (Q9NZN5 other isoform, or with tags, fused parts or gaps): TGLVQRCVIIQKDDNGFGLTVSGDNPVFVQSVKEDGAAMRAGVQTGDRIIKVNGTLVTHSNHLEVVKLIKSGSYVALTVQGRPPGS
GRIP2_4, Q9C0E4, sequence (Q9C0E4 446-548): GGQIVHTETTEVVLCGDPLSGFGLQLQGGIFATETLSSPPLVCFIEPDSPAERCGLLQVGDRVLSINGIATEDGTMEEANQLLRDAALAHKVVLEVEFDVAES
NHERF4_1, Q86UT5-2, sequence (Q86UT5 other isoform, or with tags, fused parts or gaps): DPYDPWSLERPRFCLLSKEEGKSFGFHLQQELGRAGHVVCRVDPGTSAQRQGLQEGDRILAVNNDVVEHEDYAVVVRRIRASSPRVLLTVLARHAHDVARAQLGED

pKd (ARHGEF12, Q9NZN5-2)	pKd (CARD11, Q9BXL7)	pKd (DLG3_2, Q92796)	pKd (DLG3_3, Q92796)	pKd (FRMPD2_2, Q68DX3)	pKd (GIPC2, Q8TF65)	pKd (GRIP1_2, Q9Y3R0)	pKd (GRIP2_4, Q9C0E4)	pKd (GRIP2_5, Q9C0E4)	pKd (GRIP2_7, Q9C0E4)	pKd (IL16_4, Q14005)	pKd (Inadl_4, Q8NI35)	pKd (LNX2_3, Q8N448)	pKd (MPP2, Q14168)	pKd (MPP6, Q9NZW5)	pKd (MPP7, Q5T2T1)	pKd (NOS1, P29475)	pKd (PDLIM1, O00151)	pKd (PTPN3, P26045)	pKd (RHPN1, Q8TCX5)	Binder	other results
3.61	below the threshold	below the threshold	below the threshold	below the threshold	below the threshold	below the threshold	below the threshold	below the threshold	3.53	below the threshold	below the threshold	below the threshold	below the threshold	3.51	below the threshold	below the threshold	below the threshold	3.92	below the threshold	GDHLDRRVVL [VAC14, Q08AM6]	pKd (NHERF4_1, Q86UT5-2): 4.07; pKd (SCRIB_1, Q14160): below the threshold; pKd (SCRIB_3, Q14160): below the threshold; pKd (SIPA1L2, Q9P2F8): below the threshold; pKd (SNTG2, Q9NY99): below the threshold; pKd (TJP2_1, Q9UDY2): below the threshold
below the threshold	below the threshold	below the threshold	below the threshold	below the threshold	below the threshold	below the threshold	below the threshold	below the threshold	below the threshold	below the threshold	below the threshold	below the threshold	below the threshold	below the threshold	below the threshold	4.36	below the threshold	below the threshold	below the threshold	LRYARPADAL [PPP1R3G, B7ZBB8]	pKd (NHERF4_1, Q86UT5-2): 4.29; pKd (SCRIB_1, Q14160): below the threshold; pKd (SCRIB_3, Q14160): below the threshold; pKd (SIPA1L2, Q9P2F8): below the threshold; pKd (SNTG2, Q9NY99): below the threshold; pKd (TJP2_1, Q9UDY2): below the threshold
below the threshold	below the threshold	4.23	below the threshold	below the threshold	below the threshold	below the threshold	below the threshold	below the threshold	below the threshold	below the threshold	below the threshold	below the threshold	below the threshold	below the threshold	below the threshold	below the threshold	below the threshold	3.95	below the threshold	EYRKDNKVAA [LSM14A, Q8ND56;Q8ND56-2]	pKd (SCRIB_1, Q14160): below the threshold; pKd (SCRIB_3, Q14160): below the threshold; pKd (SIPA1L2, Q9P2F8): below the threshold; pKd (SNTG2, Q9NY99): below the threshold

Reference: publication PMC9482650, “Quantitative fragmentomics allow affinity mapping of interactomes” (Nature Communications, 2022)
